Results taken from patent US20260078148A1.

Molecular target: CD2
Assay: flow cytometry on primary human T cells at day 5; CD2 detected with the competing clone RPA-2.10

Chain of CD2 (receptor chain, as listed by the source limits assumed, form in doubt): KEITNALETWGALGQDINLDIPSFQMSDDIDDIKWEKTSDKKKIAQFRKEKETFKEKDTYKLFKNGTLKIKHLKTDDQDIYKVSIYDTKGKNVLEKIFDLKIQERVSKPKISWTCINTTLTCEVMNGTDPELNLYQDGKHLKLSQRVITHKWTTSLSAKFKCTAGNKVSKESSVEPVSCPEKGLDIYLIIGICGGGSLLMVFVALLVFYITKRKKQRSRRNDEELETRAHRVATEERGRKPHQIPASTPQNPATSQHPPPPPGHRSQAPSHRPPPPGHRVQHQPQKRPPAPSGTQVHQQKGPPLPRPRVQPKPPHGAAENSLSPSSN

Substance: CD2 RPA naked (antibody)
- IC50 (read off the curve): 0.08 nM
